{
  "source": "the nanobody polyreactivity screen of Harvey et al. (2022)",
  "data": [
    {"assay": "yeast display, Sf9 membrane polyspecificity reagent, FACS + sequencing; frameworks hold sequencing errors", "how_it_was_run": "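Nanobodies came from a synthetic yeast display library in Saccharomyces cerevisiae BJ5465, induced with galactose for 36–48 hours and stained for 1 hour at 4 °C with 10% biotinylated, detergent-solubilized Sf9 membrane reagent. Cells were enriched on streptavidin microbeads and then FACS-sorted, with low and high (top ~1%) gates set on anti-HA fluorescence for expression and streptavidin fluorescence for reagent binding. Each polyreactivity label reflects the gate a clone came from. Genes were amplified by colony PCR, sequenced by MiSeq 2 × 250 and filtered by CDR length.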", "values": [
      {"sequence": "QVQLVESGGGLVQAGGSLRLNCAASGITFSANAMGWYRQATGKERELVASNRSSGGSTYYADSVKGRFTISRDNEKKTVYLQMNSLKPEDTAVYSRNARLGPLYVYRQYDSWGQGTQVTVSS", "polyreactivity (PSR sort gate)": "low polyreactivity"},
      {"sequence": "QVQLVESGGGLVQAGGSLRLNCAASGRIFDVNAMGWYRQAPGKERELVAAITYSDGSTYYADSLKGRFTISRDTAKNTVYLQMNSLKPEDTAVYYCAATHEPVTPQPYGYWGQGTQVTVSS", "polyreactivity (PSR sort gate)": "low polyreactivity"},
      {"sequence": "QVQLVESGGGLVQAGGSLRLNCAASGRISTYYVMGWYRQAPGKERELVAAINWSDGSTYYADSVKGRFTISRDNAKNTVYFQMNSLKPEDTAVYYCNVDAGVEGGTVDYWGQGTQVTVSS", "polyreactivity (PSR sort gate)": "low polyreactivity"},
      {"sequence": "QVQLVESGGGLVQAGGSLRLNCAASGRNLPFYAMGWYRQAPGKERDLVATISWTSDSTYYADSVKGRFTISRDNPKNTVFLQMNSLIREVTGVYYCASVYTYTYASTVIYDHWGQGTQVTVSS", "polyreactivity (PSR sort gate)": "low polyreactivity"},
      {"sequence": "QVQLVESGGGLVQAGGSLRLNCAASGSTLARYAMGWYRQAPGKERELVAAITWSGVSTYYADSVKGRFTISRDNAKNTVYLQMISLKPEDTAVYYCNARIFRSPNPYDYWGEGTQVTVSS", "polyreactivity (PSR sort gate)": "high polyreactivity"},
      {"sequence": "QVQLVESGGGLVQAGGSLRLRCAASARTFRDYAMGCYRQATGKERELVAVIDSGGGTDYADSVKGRFTISRDNAKNTVYLQMNSLKPEDTAVYYCAADSSVRYRDTEDYWGQGTQVTVSS", "polyreactivity (PSR sort gate)": "low polyreactivity"},
      {"sequence": "QVQLVESGGGLVQAGGSLRLRCAASGFIFRLYAMGWYIQAPGKERELVASITQGGSTYYADSVKGRFTISRDNAKNTVYLLMNSLKPEDTAVNDCAATYLHVYRRRFYYWGQGTQVSVSS", "polyreactivity (PSR sort gate)": "high polyreactivity"},
      {"sequence": "QVQLVESGGGLVQAGGSLRLRCAASGFIFSYYAMGWYRQAPGKERELVAGISYNGNRTYYADSVEGRFTISRDNAKNTVYLQMNSLKPEDTAVYYCNVVCVLGGWYDLEYDYWGQGTQVTVSS", "polyreactivity (PSR sort gate)": "high polyreactivity"},
      {"sequence": "QVQLVESGGGLVQAGGSLRLRCAASGFTYSYYAMGWYRQAPGKERELVAAINSGGSTYYADSVKGRFTISRDNAKNTVFLLMNSLKPEDTAVYYCAAVYSPGRGYGYIYYYWGQGSQVTVSS", "polyreactivity (PSR sort gate)": "high polyreactivity"},
      {"sequence": "QVQLVESGGGLVQAGGSLRLRCAASGGIFGRYAMGWYRQAPGKERELVAAISKRGGSTYYADSVKGRFTISRDNAKNTVYLLMNSLKPEDTAVYYCNASQSVELGYDYLGQGTQVTVSS", "polyreactivity (PSR sort gate)": "high polyreactivity"},
      {"sequence": "QVQLVESGGGLVQAGGSLRLRCAASGGIFSIYAMGWYRQAPGKERELVAAISTSGGSTYYADSVKARFTISRDNAKNTVYLQMNSLKPEDTAVYYCNARSQQWWLSRYNYWGQGTQVTVSS", "polyreactivity (PSR sort gate)": "high polyreactivity"},
      {"sequence": "QVQLVESGGGLVQAGGSLRLRCAASGGIINWYAMGWYRQAQGKERELVAAISWRTTSTYYADSVKGRFTISRDTAKNTVYLQMNCLKPEDTAVYYCYASGEVLAAVVTYDYWGQGTQVTVSS", "polyreactivity (PSR sort gate)": "low polyreactivity"},
      {"sequence": "QVQLVESGGGLVQAGGSLRLRCAASGLIFAEYAIGWYRQAPGKERELVARITSGGSTDYADSVKGRFTISRDNAKNTVYLQMNSLKPEDTAVYYCAARYYSQDKNASTASDFDYWGQGTQVTVSS", "polyreactivity (PSR sort gate)": "low polyreactivity"},
      {"sequence": "QVQLVESGGGLVQAGGSLRLRCAASGNIFGIYTMAWYRQAPGKESDFVAVISLSGTSTYYADSVKGRFTISRDNAKNTVYLQMNSLKPEDTAVYYCNARTPHNKGRRRAYDYWGQGTEVTVSS", "polyreactivity (PSR sort gate)": "high polyreactivity"},
      {"sequence": "QVQLVESGGGLVQAGGSLRLRCAASGRIFGVYVMGWYRQAPGKESEFVAAISWSGSHTYYADSVKGRFTISRYNAKNTVYLQMNSLKPEDTAVYYCNADSYPDYTGPGLDWYDFWGQGTQVTVSS", "polyreactivity (PSR sort gate)": "low polyreactivity"},
      {"sequence": "QVQLVESGGGLVQAGGSLRLRCAASGRIFPYYAMGWYRQSPGKERELVAAIRWSGGDTYYADSVKGRFTISRDNAKNTVYLQMNSLKPEDTAVYYCAAKAYSYSRWGYYGYYYWGQGTQVTVSS", "polyreactivity (PSR sort gate)": "high polyreactivity"},
      {"sequence": "QVQLVESGGGLVQAGGSLRLRCAASGRIIFRNAMVWYRQAHGKERELVAAITRGGGSTYYADSVKGRFTISRDNAKNTVYLQMNSLKPEDTAVYYCAAGACYSLYSAYDYWGQGTQVTVSS", "polyreactivity (PSR sort gate)": "low polyreactivity"},
      {"sequence": "QVQLVESGGGLVQAGGSLRLRCAASGRIQPGNAMGWYRQATGKERELVAAISSGGRTNYADSVKGRFTISRDIAKITVYLQMNSLKPEDTAVYYCAKRTVWWSIWHYYPPTYNYWGQGTQVTVSS", "polyreactivity (PSR sort gate)": "high polyreactivity"},
      {"sequence": "QVQLVESGGGLVQAGGSLRLRCAASGRTFPSYTMGWYRQAPGKERELVAAITWTGGSTYYADSVKGRFTISRDNAKNTVYLQMNSLKPEDTAVYYCADYDYWGQGTQVTVSS", "polyreactivity (PSR sort gate)": "low polyreactivity"},
      {"sequence": "QVQLVESGGGLVQAGGSLRLRCAASGRTFRVYAMGWYRQAPGKERELVATITSSGGSTYYADSVKGRFTISRDNAKNTVYLQMNSLKPEDTAVYYCNVSVYNNYDSSYYYWGQGTQVTVSS", "polyreactivity (PSR sort gate)": "low polyreactivity"},
      {"sequence": "QVQLVESGGGLVQAGGSLRLRCAASGRTFSAYAMGWYRQAPGKERELVAAISRRGGSTYYADSVKWRFTISRDNAKNTVYFQMNSLKPSDTAVYYCAADVYKQYGFYYWGQVTQVTVSS", "polyreactivity (PSR sort gate)": "high polyreactivity"},
      {"sequence": "QVQLVESGGGLVQAGGSLRLRCAASGRTFSSYDKAWYRPAPGKERELVAAITKSGGSTYYADSVKGRFTLSRDKAKNTVYLQMNSLKPDDTAVYYCGYQYYYWGQGTQVTVSS", "polyreactivity (PSR sort gate)": "high polyreactivity"},
      {"sequence": "QVQLVESGGGLVQAGGSLRLRCAASGRTFYKNTMGWYRQAPGKERELVATISQRGGATYYADSVKGRFTISRDNAKNTVYLQMTSLKPEDTAVYYCNARKYTQSIHYDYWGQGTQVTVSS", "polyreactivity (PSR sort gate)": "high polyreactivity"},
      {"sequence": "QVQLVESGGGLVQAGGSLRLRCAASGRTFYVYAMGWYRQAPGKERELVATNNTGGSTYYADSVKGRFTISRDNAKNTVYLQMNSLKPEDTAVYYCAARYNPYYIRFGFDKSFYYWGQGTQVTVSS", "polyreactivity (PSR sort gate)": "low polyreactivity"},
      {"sequence": "QVQLVESGGGLVQAGGSLRLRCAASGRTLWLYTMGWYRQAPGKERELVARIRSGGSTYYADSVKGRFTISRDNAKNTVYLQMNSLKPEDTAVYYCAAYPYWIHYENYYWGQGTQVTVSS", "polyreactivity (PSR sort gate)": "high polyreactivity"},
      {"sequence": "QVQLVESGGGLVQAGGSLRLRCAASGRTNAYYNMGRYRQAPGKERELVAAISKSGGSTYYADSVKGRFTISRDNAKNTVYLQMNSLKPEDTAVYYCAKRRSGNVRKYDYWGQGTQVTVSS", "polyreactivity (PSR sort gate)": "high polyreactivity"},
      {"sequence": "QVQLVESGGGLVQAGGSLRLRCAASGSIFGGNAMGWYRQAPGKEREMVATITDRGSSTYYADSVKGRFTISRDNAKNTGYLQMNSLKPEDTAVYYCATAFPDVPEHDYWGQGTQVTVSS", "polyreactivity (PSR sort gate)": "low polyreactivity"},
      {"sequence": "QVQLVESGGGLVQAGGSLRLRCAASGSIFKYYAMGWYRQAPGTERELVAAITWSGTRTYYADSVKGRFTISRDNAKNTVYVQMNSLKPEDTAVYYCNAPRYLYSAGRFNYWGQGTQVTVSS", "polyreactivity (PSR sort gate)": "high polyreactivity"},
      {"sequence": "QVQLVESGGGLVQAGGSLRLRCAASGSIFSNNAMGWYRPAPGKERELVAAITRSGGNTYYADSVKGRFTISRDNAKNTVYLQMNSLKPEDTAVYYCNAVHLRKMYYWGQGTQVTVSS", "polyreactivity (PSR sort gate)": "high polyreactivity"},
      {"sequence": "QVQLVESGGGLVQAGGSLRLRCAASGSIFVVNAMGWYRPAPGKERELVAAISWSDTTTYYADSVKARFTISRDNAKNTVYLQMNSLKPEDTAVYYCAAGFVIKYDYWGQGTQVTVSS", "polyreactivity (PSR sort gate)": "low polyreactivity"},
      {"sequence": "QVQLVESGGGLVQAGGSLRLRCAASGSIFYRNAMGWYRQAPGKERELVASITSGGRTNYADSLKGRFTISRDNAKNTVYLQMNSLKPEDTAVYYCAVQYHAASDHSYWGQGTQVTVSS", "polyreactivity (PSR sort gate)": "low polyreactivity"},
      {"sequence": "QVQLVESGGGLVQAGGSLRLRCAASGSIIGIYAMGWYRQAPGKERELVAAISWSGGSTYYADSVKGRFTISRDNAKNTVYLQMISLKPVDTAVYYCAARGHYQYYWGQGTQVTVSS", "polyreactivity (PSR sort gate)": "low polyreactivity"},
      {"sequence": "QVQLVESGGGLVQAGGSLRLRCAASGSIIVPNAMGWYRQAPGKERELVAAISGRGGSTYYADSEKGRFTISRDNAKNTVSLQMKSLKPEDTAVYYCAAQDTYHSYGLYSWGQGTQVTVSS", "polyreactivity (PSR sort gate)": "low polyreactivity"},
      {"sequence": "QVQLVESGGGLVQAGGSLRLRCAASGSSFTGYAMGLYRQAPGKEREFVAAICWTGVSTYYADSVKGSFTISRDNAKNTVYLQMNSLKPEDTAVYYCAVDYVLRDRDLFYIIMEYWGQGTQVTVSS", "polyreactivity (PSR sort gate)": "low polyreactivity"},
      {"sequence": "QVQLVESGGGLVQAGGSLRLRCAASGSTFLYYSMGWYREAPGKECELVAAISSTDDSTYADSVKGRFTISRDNAKNTVYLQLNSLKPEDTAVYYCAADVQTLITLGQFDYWGQGTQVTVSS", "polyreactivity (PSR sort gate)": "low polyreactivity"},
      {"sequence": "QVQLVESGGGLVQAGGSLRLRCAASGSTFTYYAMGWYRQAPGKERELVAVSNKSGGRTNYADSVKGRFTISRDNAKNTVYLQMNSLKPEDTAVYYCNKVTRREGSYGYPSRYDYWGQGTQVTVSS", "polyreactivity (PSR sort gate)": "high polyreactivity"},
      {"sequence": "QVQLVESGGGLVQAGGSLRLRCAASGSTFYGYAMGRYRQAPGTERELVALISSSSGRTYYADSVKGRFTISRDNAKNTLYLQMNSLKPEDTAVYDCAKYVFGKFEGVRYSFDYWGQGTQVTVSS", "polyreactivity (PSR sort gate)": "low polyreactivity"},
      {"sequence": "QVQLVESGGGLVQAGGSLRLRCAASGSTFYHNAMGWYRQAPGKERELVAAISTRGTSTYYADSVKGRFTISRDKAKNTVYLQMNSLKPEDTAVYYCNAVYKLRARYDYWGQGTQVTVSS", "polyreactivity (PSR sort gate)": "high polyreactivity"},
      {"sequence": "QVQLVESGGGLVQAGGSLRLRCAASGSTFYLNAQGWYRQATGKEREFVAAITVSGGSTYYADSVKARFTISRDNAKNTVYLKMNSLKPEDTAVYYCARELLSPTYQRWYYYWGQGTQVTVSS", "polyreactivity (PSR sort gate)": "low polyreactivity"},
      {"sequence": "QVQLVESGGGLVQAGGSLRLRCAASGSTIVQYDMGWYRQAPGKERELVAAISRTGSTYYADSVKGRFTISRDNAKNTVYLQINSLKPEDTAVYYCNAEFWRGTYRFGYWGQGTQVTVSS", "polyreactivity (PSR sort gate)": "low polyreactivity"},
      {"sequence": "QVQLVESGGGLVQAGGSLRLRCAASGYTFRGNAMAWYSQAPGKERDLVAGISQTGGNTYYADSVKGRFTISRDNAKNTVYLQMNSLKPEDTAVYYCATTRRPYVRGYPHYYWGQGTEVTVSS", "polyreactivity (PSR sort gate)": "high polyreactivity"}
    ]}
  ]
}
